From the supplement of paper PMC11316812
± gives the standard deviation of the averaged measurements.

Columns and labels:
MCF7 = assay: percentage of EdU-negative (G0-arrested) nuclei per well, 72 h; higher = more G0 arrest; settings: reference: sequence is the full UniProt precursor, the tested protein was the secreted form or ectodomain
hTERT-HMEC = assay: as above; settings: reference: sequence is the full UniProt precursor, the tested protein was the secreted form or ectodomain
[1] = protein concentration 0.0225 µM
[2] = protein concentration 0.0351429 µM
[3] = protein concentration 0.351429 µM
[4] = protein concentration 0.0085 µM
[5] = protein concentration 0.03125 µM
[6] = protein concentration 0.3125 µM
[7] = protein concentration 0.0262857 µM
[8] = protein concentration 0.262857 µM
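Also: secreted proteins added to cultured cells, EdU pulse at the end, nuclei found by Hoechst imaging, EdU status from nuclear versus surrounding ring intensity ratio, PBS as neutral control.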

Sequence: MAHRPPSPALASVLLALLLSGAARAAEIVGGHEAQPHSRPYMASLQMRGNPGSHFCGGTLIHPSFVLTAAHCLRDIPQRLVNVVLGAHNVRTQEPTQQHFSVAQVFLNNYDAENKLNDVLLIQLSSPANLSASVATVQLPQQDQPVPHGTQCLAMGWGRVGAHDPPAQVLQELNVTVVTFFCRPHNICTFVPRRKAGICFGDSGGPLICDGIIQGIDSFVIWGCATRLFPDFFTRVALYVDWIRSTLRRVEAKGRP
- percentage of EdU-negative (MCF7; [1]): 25.4 ± 0.57%
- percentage of EdU-negative (MCF7; protein concentration 0.225 µM): 28.984 ± 0.026%
- percentage of EdU-negative (hTERT-HMEC; [1]): 4.55 ± 0.18%
- percentage of EdU-negative (hTERT-HMEC; protein concentration 0.225 µM): 4.49 ± 0.19%

Sequence: MTGDCMPVLVLMAAVLTVTGAVPVARLRGALPDARGCHIAQFKSLSPQELQAFKRAKDALEESLLLKDCKCRSRLFPRTWDLRQLQVRERPVALEAELALTLKVLEATADTDPALGDVLDQPLHTLHHILSQLRACIQPQPTAGPRTRGRLHHWLHRLQEAPKKESPGCLEASVTFNLFRLLTRDLNCVASGDLCV [Q8IZI9]
- percentage of EdU-negative (MCF7; [2]): 24 ± 2.3%
- percentage of EdU-negative (MCF7; [3]): 28.6 ± 4%
- percentage of EdU-negative (hTERT-HMEC; [2]): 6.75 ± 0.89%
- percentage of EdU-negative (hTERT-HMEC; [3]): 10.9 ± 2.5%

Sequence: MWAGLLLRAACVALLLPGAPARGYTGRKPPGHFAAERRRLGPHVCLSGFGSGCCPGWAPSMGGGHCTLPLCSFGCGSGICIAPNVCSCQDGEQGATCPETHGPCGEYGCDLTCNHGGCQEVARVCPVGFSMTETAVGIRCTDIDECVTSSCEGHCVNTEGGFVCECGPGMQLSADRHSCQDTDECLGTPCQQRCKNSIGSYKCSCRTGFHLHGNRHSCVDVNECRRPLERRVCHHSCHNTVGSFLCTCRPGFRLRADRVSCEAFPKAVLAPSAILQPRQHPSKMLLLLPEAGRPALSPGHSPPSGAPGPPAGVRTTRLPSPTPRLPTSSPSAPVWLLSTLLATPVPTASLLGNLRPPSLLQGEVMGTPSSPRGPESPRLAAGPSPCWHLGAMHESRSRWTEPGCSQCWCEDGKVTCEKVRCEAACSHPIPSRDGGCCPSCTGCFHSGVVRAEGDVFSPPNENCTVCVCLAGNVSCISPECPSGPCQTPPQTDCCTCVPVRCYFHGRWYADGAVFSGGGDECTTCVCQNGEVECSFMPCPELACPREEWRLGPGQCCFTCQEPTPSTGCSLDDNGVEFPIGQIWSPGDPCELCICQADGSVSCKRTDCVDSCPHPIRIPGQCCPDCSAGCTYTGRIFYNNETFPSVLDPCLSCICLLGSVACSPVDCPITCTYPFHPDGECCPVCRDCNYEGRKVANGQVFTLDDEPCTRCTCQLGEVSCEKVPCQRACADPALLPGDCCSSCPDSLSPLEEKQGLSPHGNVAFSKAGRSLHGDTEAPVNCSSCPGPPTASPSRPVLHLLQLLLRTNLMKTQTLPTSPAGAHGPHSLALGLTATFPGEPGASPRLSPGPSTPPGAPTLPLASPGAPQPPPVTPERSFSASGAQIVSRWPPLPGTLLTEASALSMMDPSPSKTPITLLGPRVLSPTTSRLSTALAATTHPGPQQPPVGASRGEESTM [Q96DN2]
- percentage of EdU-negative (MCF7; [4]): 25.5 ± 1.1%
- percentage of EdU-negative (MCF7; protein concentration 0.085 µM): 26.4 ± 1.8%
- percentage of EdU-negative (hTERT-HMEC; [4]): 4.9939 ± 0.0014%
- percentage of EdU-negative (hTERT-HMEC; protein concentration 0.085 µM): 5.36 ± 0.4%

Sequence: MGFQKFSPFLALSILVLLQAGSLHAAPFRSALESSPADPATLSEDEARLLLAALVQDYVQMKASELEQEQEREGSSLDSPRSKRCGNLSTCMLGTYTQDFNKFHTFPQTAIGVGAPGKKRDMSSDLERDHRPHVSMPQNAN
- percentage of EdU-negative (MCF7; [5]): 26.7 ± 2.5%
- percentage of EdU-negative (MCF7; [6]): 25.55 ± 0.19%
- percentage of EdU-negative (hTERT-HMEC; [5]): 5.19 ± 0.42%
- percentage of EdU-negative (hTERT-HMEC; [6]): 5.1 ± 0.19%

Sequence: MGIGRSEGGRRGAALGVLLALGAALLAVGSASEYDYVSFQSDIGPYQSGRFYTKPPQCVDIPADLRLCHNVGYKKMVLPNLLEHETMAEVKQQASSWVPLLNKNCHAGTQVFLCSLFAPVCLDRPIYPCRWLCEAVRDSCEPVMQFFGFYWPEMLKCDKFPEGDVCIAMTPPNATEASKPQGTTVCPPCDNELKSEAIIEHLCASEFALRMKIKEVKKENGDKKIVPKKKKPLKLGPIKKKDLKKLVLYLKNGADCPCHQLDNLSHHFLIMGRKVKSQYLLTAIHKWDKKNKEFKNFMKKMKNHECPTFQSVFK [Q8N474]
- percentage of EdU-negative (MCF7; protein concentration 0.008 µM): 25.5 ± 1.6%
- percentage of EdU-negative (MCF7; protein concentration 0.08 µM): 26.5 ± 2.3%
- percentage of EdU-negative (hTERT-HMEC; protein concentration 0.008 µM): 5.94 ± 0.1%
- percentage of EdU-negative (hTERT-HMEC; protein concentration 0.08 µM): 7.36 ± 1.1%

Sequence: MFLKAVVLTLALVAVAGARAEVSADQVATVMWDYFSQLSNNAKEAVEHLQKSELTQQLNALFQDKLGEVNTYAGDLQKKLVPFATELHERLAKDSEKLKEEIGKELEELRARLLPHANEVSQKIGDNLRELQQRLEPYADQLRTQVSTQAEQLRRQLTPYAQRMERVLRENADSLQASLRPHADELKAKIDQNVEELKGRLTPYADEFKVKIDQTVEELRRSLAPYAQDTQEKLNHQLEGLTFQMKKNAEELKARISASAEELRQRLAPLAEDVRGNLRGNTEGLQKSLAELGGHLDQQVEEFRRRVEPYGENFNKALVQQMEQLRQKLGPHAGDVEGHLSFLEKDLRDKVNSFFSTFKEKESQDKTLSLPELEQQQEQQQEQQQEQVQMLAPLES
- percentage of EdU-negative (MCF7; [7]): 22.7 ± 1.3%
- percentage of EdU-negative (MCF7; [8]): 27 ± 1.5%
- percentage of EdU-negative (hTERT-HMEC; [7]): 5.7 ± 1%
- percentage of EdU-negative (hTERT-HMEC; [8]): 7.022 ± 0.041%
